# According to patent US20240018502A1:
# Molecular target: plasma purified human complement protein C3 (human) (UniProt P01024)
# Assay: cell-based or functional assay
# plasma purified human complement protein C3 (human), sequence (P01024 23-667, chain 1 of 2): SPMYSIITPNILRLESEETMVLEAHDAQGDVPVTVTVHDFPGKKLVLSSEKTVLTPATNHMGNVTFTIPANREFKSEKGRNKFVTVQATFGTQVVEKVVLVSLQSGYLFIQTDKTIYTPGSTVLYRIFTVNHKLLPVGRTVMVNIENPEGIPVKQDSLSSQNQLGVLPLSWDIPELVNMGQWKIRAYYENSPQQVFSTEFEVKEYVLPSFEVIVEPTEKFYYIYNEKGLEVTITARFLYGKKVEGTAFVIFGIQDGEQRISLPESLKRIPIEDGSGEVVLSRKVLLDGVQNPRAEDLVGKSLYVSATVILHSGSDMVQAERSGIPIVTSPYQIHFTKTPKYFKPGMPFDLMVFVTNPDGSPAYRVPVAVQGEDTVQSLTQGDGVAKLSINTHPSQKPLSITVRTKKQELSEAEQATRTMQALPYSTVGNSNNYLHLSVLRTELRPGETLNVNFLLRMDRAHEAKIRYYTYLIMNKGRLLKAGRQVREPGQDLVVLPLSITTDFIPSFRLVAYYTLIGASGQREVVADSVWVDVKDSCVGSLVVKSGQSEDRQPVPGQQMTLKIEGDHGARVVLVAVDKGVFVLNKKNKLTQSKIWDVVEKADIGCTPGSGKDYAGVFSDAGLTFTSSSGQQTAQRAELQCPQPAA
# plasma purified human complement protein C3 (human), sequence (P01024 672-1663, chain 2 of 2): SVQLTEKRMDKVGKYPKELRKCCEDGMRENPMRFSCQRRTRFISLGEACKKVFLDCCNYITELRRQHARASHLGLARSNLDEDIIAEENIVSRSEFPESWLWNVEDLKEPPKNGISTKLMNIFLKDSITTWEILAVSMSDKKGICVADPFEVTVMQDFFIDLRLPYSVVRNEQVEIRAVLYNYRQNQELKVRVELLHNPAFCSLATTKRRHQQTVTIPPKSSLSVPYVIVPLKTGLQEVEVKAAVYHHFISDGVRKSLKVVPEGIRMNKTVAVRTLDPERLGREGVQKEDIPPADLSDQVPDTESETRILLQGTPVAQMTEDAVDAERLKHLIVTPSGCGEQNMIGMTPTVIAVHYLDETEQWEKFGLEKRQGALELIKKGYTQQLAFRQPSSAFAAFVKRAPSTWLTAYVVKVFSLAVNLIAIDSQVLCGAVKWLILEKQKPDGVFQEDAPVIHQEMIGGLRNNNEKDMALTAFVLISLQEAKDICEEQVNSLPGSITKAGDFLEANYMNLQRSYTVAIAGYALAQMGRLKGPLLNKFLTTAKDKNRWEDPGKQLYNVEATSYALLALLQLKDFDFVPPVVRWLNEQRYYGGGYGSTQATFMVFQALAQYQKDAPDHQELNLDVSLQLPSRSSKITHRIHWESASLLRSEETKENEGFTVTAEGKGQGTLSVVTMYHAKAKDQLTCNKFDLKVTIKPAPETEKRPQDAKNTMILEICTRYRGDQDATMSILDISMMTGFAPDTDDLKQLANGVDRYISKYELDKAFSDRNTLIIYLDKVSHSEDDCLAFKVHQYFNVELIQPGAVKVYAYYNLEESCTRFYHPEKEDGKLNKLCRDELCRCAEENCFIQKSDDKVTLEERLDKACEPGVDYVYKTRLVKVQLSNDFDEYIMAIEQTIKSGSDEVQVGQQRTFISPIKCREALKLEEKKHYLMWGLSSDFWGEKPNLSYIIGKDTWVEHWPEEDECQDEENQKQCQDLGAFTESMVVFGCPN
Binder,EC50 hC3 cleavage,EC50 of hC3 cleavage
MTSP-1 protease domain F97S/F99L/C122S/G151N/Q175I/Q192T/D217T (enzyme) VVGGTDADEGEWPWQVSLHALGQGHICGASLISPNWLVSAAHCYIDDRGFRYSDPTQWTAFLGLHDQSQRSAPGVQERRLKRIISHPFFNDSTLDYDIALLELEKPAEYSSMVRPISLPDASHVFPAGKAIWVTGWGHTQYGGTNALILQKGEIRVINQTTCENLLPQIITPRMMCVGFLSGGVDSCTGDSGGPLSSVEADGRIFQAGVVSWGTGCAQRNKPGVYTRLPLFRDWIKENTGV,524 nM,
MTSP-1 protease domain I41G/F97S/F99L/C122S/G151N/Q175I/D217T (enzyme) VVGGTDADEGEWPWQVSLHALGQGHGCGASLISPNWLVSAAHCYIDDRGFRYSDPTQWTAFLGLHDQSQRSAPGVQERRLKRIISHPFFNDSTLDYDIALLELEKPAEYSSMVRPISLPDASHVFPAGKAIWVTGWGHTQYGGTNALILQKGEIRVINQTTCENLLPQIITPRMMCVGFLSGGVDSCQGDSGGPLSSVEADGRIFQAGVVSWGTGCAQRNKPGVYTRLPLFRDWIKENTGV,107 nM,
MTSP-1 protease domain I41G/F97S/F99L/C122S/G151N/Q192T/D217T (enzyme) VVGGTDADEGEWPWQVSLHALGQGHGCGASLISPNWLVSAAHCYIDDRGFRYSDPTQWTAFLGLHDQSQRSAPGVQERRLKRIISHPFFNDSTLDYDIALLELEKPAEYSSMVRPISLPDASHVFPAGKAIWVTGWGHTQYGGTNALILQKGEIRVINQTTCENLLPQQITPRMMCVGFLSGGVDSCTGDSGGPLSSVEADGRIFQAGVVSWGTGCAQRNKPGVYTRLPLFRDWIKENTGV,105 nM,
MTSP-1 protease domain I41E/F97R/F99L/C122S/G151Q/Q175G/Q192T/D217V (enzyme) VVGGTDADEGEWPWQVSLHALGQGHECGASLISPNWLVSAAHCYIDDRGFRYSDPTQWTAFLGLHDQSQRSAPGVQERRLKRIISHPFFNDRTLDYDIALLELEKPAEYSSMVRPISLPDASHVFPAGKAIWVTGWGHTQYGGTQALILQKGEIRVINQTTCENLLPQGITPRMMCVGFLSGGVDSCTGDSGGPLSSVEADGRIFQAGVVSWGVGCAQRNKPGVYTRLPLFRDWIKENTGV,13 nM,
MTSP-1 protease domain I41G/F97S/F99L/C122S/Q175I/Q192T/D217T (enzyme) VVGGTDADEGEWPWQVSLHALGQGHGCGASLISPNWLVSAAHCYIDDRGFRYSDPTQWTAFLGLHDQSQRSAPGVQERRLKRIISHPFFNDSTLDYDIALLELEKPAEYSSMVRPISLPDASHVFPAGKAIWVTGWGHTQYGGTGALILQKGEIRVINQTTCENLLPQIITPRMMCVGFLSGGVDSCTGDSGGPLSSVEADGRIFQAGVVSWGTGCAQRNKPGVYTRLPLFRDWIKENTGV,155 nM,
MTSP-1 protease domain I41D/F97R/F99L/C122S/G151Q/Q175R/Q192V/D217L (enzyme) VVGGTDADEGEWPWQVSLHALGQGHDCGASLISPNWLVSAAHCYIDDRGFRYSDPTQWTAFLGLHDQSQRSAPGVQERRLKRIISHPFFNDRTLDYDIALLELEKPAEYSSMVRPISLPDASHVFPAGKAIWVTGWGHTQYGGTQALILQKGEIRVINQTTCENLLPQRITPRMMCVGFLSGGVDSCVGDSGGPLSSVEADGRIFQAGVVSWGLGCAQRNKPGVYTRLPLFRDWIKENTGV,88 nM,
MTSP-1 protease domain I41G/F99L/C122S/G151N/Q175I/Q192T/D217T (enzyme) VVGGTDADEGEWPWQVSLHALGQGHGCGASLISPNWLVSAAHCYIDDRGFRYSDPTQWTAFLGLHDQSQRSAPGVQERRLKRIISHPFFNDFTLDYDIALLELEKPAEYSSMVRPISLPDASHVFPAGKAIWVTGWGHTQYGGTNALILQKGEIRVINQTTCENLLPQIITPRMMCVGFLSGGVDSCTGDSGGPLSSVEADGRIFQAGVVSWGTGCAQRNKPGVYTRLPLFRDWIKENTGV,108 nM,
MTSP-1 protease domain F97Q/F99L/C122S/Q175N/Q192V/D217G (enzyme) VVGGTDADEGEWPWQVSLHALGQGHICGASLISPNWLVSAAHCYIDDRGFRYSDPTQWTAFLGLHDQSQRSAPGVQERRLKRIISHPFFNDQTLDYDIALLELEKPAEYSSMVRPISLPDASHVFPAGKAIWVTGWGHTQYGGTGALILQKGEIRVINQTTCENLLPQNITPRMMCVGFLSGGVDSCVGDSGGPLSSVEADGRIFQAGVVSWGGGCAQRNKPGVYTRLPLFRDWIKENTGV,3670 nM,
MTSP-1 protease domain I41T/F97H/F99L/C122S/G151N/Q175H/Q192V/D217L (enzyme) VVGGTDADEGEWPWQVSLHALGQGHTCGASLISPNWLVSAAHCYIDDRGFRYSDPTQWTAFLGLHDQSQRSAPGVQERRLKRIISHPFFNDHTLDYDIALLELEKPAEYSSMVRPISLPDASHVFPAGKAIWVTGWGHTQYGGTNALILQKGEIRVINQTTCENLLPQHITPRMMCVGFLSGGVDSCVGDSGGPLSSVEADGRIFQAGVVSWGLGCAQRNKPGVYTRLPLFRDWIKENTGV,131 nM,
MTSP-1 protease domain I41G/F97S/F99L/C122S/G151N/Q175I/Q192T (enzyme) VVGGTDADEGEWPWQVSLHALGQGHGCGASLISPNWLVSAAHCYIDDRGFRYSDPTQWTAFLGLHDQSQRSAPGVQERRLKRIISHPFFNDSTLDYDIALLELEKPAEYSSMVRPISLPDASHVFPAGKAIWVTGWGHTQYGGTNALILQKGEIRVINQTTCENLLPQIITPRMMCVGFLSGGVDSCTGDSGGPLSSVEADGRIFQAGVVSWGDGCAQRNKPGVYTRLPLFRDWIKENTGV,97.7 nM,
MTSP-1 protease domain I41R/F97T/F99L/C122S/G151N/Q175T/Q192T/D217I (enzyme) VVGGTDADEGEWPWQVSLHALGQGHRCGASLISPNWLVSAAHCYIDDRGFRYSDPTQWTAFLGLHDQSQRSAPGVQERRLKRIISHPFFNDTTLDYDIALLELEKPAEYSSMVRPISLPDASHVFPAGKAIWVTGWGHTQYGGTNALILQKGEIRVINQTTCENLLPQTITPRMMCVGFLSGGVDSCTGDSGGPLSSVEADGRIFQAGVVSWGIGCAQRNKPGVYTRLPLFRDWIKENTGV,159 nM,
MTSP-1 protease domain I41D/F97T/F99L/C122S/G151N/Q175S/Q192T/D217A (enzyme) VVGGTDADEGEWPWQVSLHALGQGHDCGASLISPNWLVSAAHCYIDDRGFRYSDPTQWTAFLGLHDQSQRSAPGVQERRLKRIISHPFFNDTTLDYDIALLELEKPAEYSSMVRPISLPDASHVFPAGKAIWVTGWGHTQYGGTNALILQKGEIRVINQTTCENLLPQSITPRMMCVGFLSGGVDSCTGDSGGPLSSVEADGRIFQAGVVSWGAGCAQRNKPGVYTRLPLFRDWIKENTGV,70.9 nM,
MTSP-1 protease domain I41E/F97V/F99L/C122S/G151N/Q175L/Q192S/D217H (enzyme) VVGGTDADEGEWPWQVSLHALGQGHECGASLISPNWLVSAAHCYIDDRGFRYSDPTQWTAFLGLHDQSQRSAPGVQERRLKRIISHPFFNDVTLDYDIALLELEKPAEYSSMVRPISLPDASHVFPAGKAIWVTGWGHTQYGGTNALILQKGEIRVINQTTCENLLPQLITPRMMCVGFLSGGVDSCSGDSGGPLSSVEADGRIFQAGVVSWGHGCAQRNKPGVYTRLPLFRDWIKENTGV,49.4 nM,
MTSP-1 protease domain I41G/F97S/C122S/G151N/Q175I/Q192T/D217T (enzyme) VVGGTDADEGEWPWQVSLHALGQGHGCGASLISPNWLVSAAHCYIDDRGFRYSDPTQWTAFLGLHDQSQRSAPGVQERRLKRIISHPFFNDSTFDYDIALLELEKPAEYSSMVRPISLPDASHVFPAGKAIWVTGWGHTQYGGTNALILQKGEIRVINQTTCENLLPQIITPRMMCVGFLSGGVDSCTGDSGGPLSSVEADGRIFQAGVVSWGTGCAQRNKPGVYTRLPLFRDWIKENTGV,860 nM,
MTSP-1 protease domain I41E/F97A/F99M/C122S/G151N/Q175R/Q192S/D217E (enzyme) VVGGTDADEGEWPWQVSLHALGQGHECGASLISPNWLVSAAHCYIDDRGFRYSDPTQWTAFLGLHDQSQRSAPGVQERRLKRIISHPFFNDATMDYDIALLELEKPAEYSSMVRPISLPDASHVFPAGKAIWVTGWGHTQYGGTNALILQKGEIRVINQTTCENLLPQRITPRMMCVGFLSGGVDSCSGDSGGPLSSVEADGRIFQAGVVSWGEGCAQRNKPGVYTRLPLFRDWIKENTGV,485 nM,
MTSP-1 protease domain F97R/ins97aT/T98V/C122S/Q175M/Q192T/D217S (enzyme) VVGGTDADEGEWPWQVSLHALGQGHICGASLISPNWLVSAAHCYIDDRGFRYSDPTQWTAFLGLHDQSQRSAPGVQERRLKRIISHPFFNDRTVFDYDIALLELEKPAEYSSMVRPISLPDASHVFPAGKAIWVTGWGHTQYGGTGALILQKGEIRVINQTTCENLLPQMITPRMMCVGFLSGGVDSCTGDSGGPLSSVEADGRIFQAGVVSWGSGCAQRNKPGVYTRLPLFRDWIKENTGV,42.2 nM,
MTSP-1 protease domain F97S/ins97aN/T98G/F99M/C122S/Q175T/Q192T/D217S (enzyme) VVGGTDADEGEWPWQVSLHALGQGHICGASLISPNWLVSAAHCYIDDRGFRYSDPTQWTAFLGLHDQSQRSAPGVQERRLKRIISHPFFNDSNGMDYDIALLELEKPAEYSSMVRPISLPDASHVFPAGKAIWVTGWGHTQYGGTGALILQKGEIRVINQTTCENLLPQTITPRMMCVGFLSGGVDSCTGDSGGPLSSVEADGRIFQAGVVSWGSGCAQRNKPGVYTRLPLFRDWIKENTGV,2400 nM,
MTSP-1 protease domain F97V/ins97aH/T98R/F99L/C122S/Q175R/Q192G/D217S (enzyme) VVGGTDADEGEWPWQVSLHALGQGHICGASLISPNWLVSAAHCYIDDRGFRYSDPTQWTAFLGLHDQSQRSAPGVQERRLKRIISHPFFNDVHRLDYDIALLELEKPAEYSSMVRPISLPDASHVFPAGKAIWVTGWGHTQYGGTGALILQKGEIRVINQTTCENLLPQRITPRMMCVGFLSGGVDSCGGDSGGPLSSVEADGRIFQAGVVSWGSGCAQRNKPGVYTRLPLFRDWIKENTGV,905 nM,
MTSP-1 protease domain F97L/ins97aM/T98N/F99L/C122S/Q175T/Q192T/D217S (enzyme) VVGGTDADEGEWPWQVSLHALGQGHICGASLISPNWLVSAAHCYIDDRGFRYSDPTQWTAFLGLHDQSQRSAPGVQERRLKRIISHPFFNDLMNLDYDIALLELEKPAEYSSMVRPISLPDASHVFPAGKAIWVTGWGHTQYGGTGALILQKGEIRVINQTTCENLLPQTITPRMMCVGFLSGGVDSCTGDSGGPLSSVEADGRIFQAGVVSWGSGCAQRNKPGVYTRLPLFRDWIKENTGV,256 nM,
MTSP-1 Q38H/I41S/D60bT/F60eS/Y60gW/D96K/F97D/ins97aA/T98P/F99L/C122S/G151N/Q175L/Q192D (enzyme) VVGGTDADEGEWPWQVSLHALGHGHSCGASLISPNWLVSAAHCYIDTRGSRWSDPTQWTAFLGLHDQSQRSAPGVQERRLKRIISHPFFNKDAPLDYDIALLELEKPAEYSSMVRPISLPDASHVFPAGKAIWVTGWGHTQYGGTNALILQKGEIRVINQTTCENLLPQLITPRMMCVGFLSGGVDSCDGDSGGPLSSVEADGRIFQAGVVSWGDGCAQRNKPGVYTRLPLFRDWIKENTGV,,5.92 nM
MTSP-1 Q38H/I41S/D60bT/F60eS/Y60gW/F97G/ins97aV/T98P/F99L/C122S/G151H/Q175L/Q192D (enzyme) VVGGTDADEGEWPWQVSLHALGHGHSCGASLISPNWLVSAAHCYIDTRGSRWSDPTQWTAFLGLHDQSQRSAPGVQERRLKRIISHPFFNDGVPLDYDIALLELEKPAEYSSMVRPISLPDASHVFPAGKAIWVTGWGHTQYGGTHALILQKGEIRVINQTTCENLLPQLITPRMMCVGFLSGGVDSCDGDSGGPLSSVEADGRIFQAGVVSWGDGCAQRNKPGVYTRLPLFRDWIKENTGV,,169 nM
